We go through 2 molecules from article PMC9401620.

The series has as its target T1, RBM46 (mouse, UniProt P86049 1-533).
T1 sequence: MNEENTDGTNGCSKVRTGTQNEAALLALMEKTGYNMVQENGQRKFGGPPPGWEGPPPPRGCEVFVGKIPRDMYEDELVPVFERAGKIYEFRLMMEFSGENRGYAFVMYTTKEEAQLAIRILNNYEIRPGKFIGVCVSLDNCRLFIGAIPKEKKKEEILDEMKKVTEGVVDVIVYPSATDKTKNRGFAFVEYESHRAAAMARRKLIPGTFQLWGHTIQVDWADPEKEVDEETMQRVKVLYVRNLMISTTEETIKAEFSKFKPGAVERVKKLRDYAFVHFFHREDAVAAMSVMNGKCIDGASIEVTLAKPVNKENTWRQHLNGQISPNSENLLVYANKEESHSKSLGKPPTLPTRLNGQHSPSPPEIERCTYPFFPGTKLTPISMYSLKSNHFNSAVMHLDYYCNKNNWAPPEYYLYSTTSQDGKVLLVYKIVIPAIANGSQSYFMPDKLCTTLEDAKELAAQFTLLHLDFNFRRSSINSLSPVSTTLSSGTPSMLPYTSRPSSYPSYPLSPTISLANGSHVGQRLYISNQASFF
The experiment in a line: EMSA. On the technique in general: Mobility shift assays separate free from complexed probe on a gel.

Consider UUGUGAAACUAAAACCCGAC (ssRNA) [Ccna2 3'UTR RNA probe], for which the binding result was “binds”.
The same measure for UGUUUGAAACAGGAGUCGCU (ssRNA) [RNA probe without RBM46-binding motif]: “no binding”.
